Protein stability index data for 28 sequences are collected here from the supplement of paper PMC10724198.

± gives the standard deviation of the averaged measurements.

The data set has as its system Saccharomyces cerevisiae. Briefly: protein stability index of tFT-peptide fusion (C-terminal peptide) (PSI (0-1 scale)); higher = more stable (slower turnover). The settings on record: temperature: 30 C. Here is the method:
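MPS profiling in S. cerevisiae of the yeast C-terminome library: the last 12 aa of each annotated ORF are fused to the C-terminus of a sfGFP-mCherry timer, after a GGGS linker. Cells are FACS-sorted into 8 mCherry/sfGFP bins and deep-sequenced. PSI runs from 0 (unstable) to 1 (stable); wild type and das1Δ backgrounds, two technical replicates each.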

[1] abbreviates: genetic background: das1 deletion.

Turning to GGQNSPGDMAVA [YDL199C C-terminal 12 aa], the protein stability index by setting is: under setting [1], 0.692 ± 0.011; (genetic background: wild type) 0.741 ± 0.068.
For GHNDGDINVWTL [CAF4 C-terminal 12 aa], in that order: 0.7185 ± 0.0052 and 0.7273 ± 0.0028.
With GIDLNSIKWSGH [NFS1 C-terminal 12 aa], the protein stability index runs as follows: under setting [1], 0.718 ± 0.012; (genetic background: wild type) 0.709 ± 0.012.
For GINAGEIEIPEN [RPL12A C-terminal 12 aa], in that order: 0.692 ± 0.0082 and 0.698 ± 0.012.
Sequence GIPEEFKEFTEV [MND1 C-terminal 12 aa] showed a protein stability index under setting [1] of 0.7022 ± 0.0026 and a protein stability index (genetic background: wild type) of 0.7181 ± 0.0035.
For GIPNLLLPPHLV [TRM112 C-terminal 12 aa], the protein stability index under setting [1] turned out to be 0.707 ± 0.014 and the protein stability index (genetic background: wild type) was 0.691 ± 0.007.
As for GIVPGDCLQEYD [FUS1 C-terminal 12 aa], the protein stability index is, setting by setting: under setting [1], 0.702 ± 0.0059; (genetic background: wild type) 0.685 ± 0.016.
On to GKEHRFGLHIRS [DPH6 C-terminal 12 aa], for which the protein stability index reads like this: under setting [1], 0.6887 ± 0.0022; (genetic background: wild type) 0.698 ± 0.026.
Take GKLAEILKPVFQ [GRX2 C-terminal 12 aa]: the protein stability index under setting [1] is 0.706 ± 0.011 and the protein stability index (genetic background: wild type) worked out at 0.677 ± 0.0068.
On to GKQKQLLFHIGV [HEL2 C-terminal 12 aa], for which the protein stability index worked out at 0.6865 ± 0.0042 under setting [1] and 0.718 ± 0.035 (genetic background: wild type).
With GKQLLSPMGRAF [TKL2 C-terminal 12 aa], the protein stability index stood at 0.679 ± 0.022 under setting [1] and 0.6529 ± 0.0014 (genetic background: wild type).
Regarding GLEHSDPFSTFY [DBF2 C-terminal 12 aa], the protein stability index runs as follows: under setting [1], 0.71206 ± 0.0003; (genetic background: wild type) 0.712 ± 0.025.
For GLNEVTRLIKGL [HTS1 C-terminal 12 aa], in that order: 0.695 ± 0.011 and 0.641 ± 0.027.
For GLRYDMVHKLIS [SLH1 C-terminal 12 aa], in that order: 0.688 ± 0.025 and 0.212 ± 0.028.
Take GMISKSLKIPKP [CHO1 C-terminal 12 aa]: the protein stability index amounted to 0.661 ± 0.0085 under setting [1] and 0.698 ± 0.0082 (genetic background: wild type).
For the sequence GNIVSQDLLDLF [APL2 C-terminal 12 aa], the protein stability index reads like this: under setting [1], 0.724 ± 0.034; (genetic background: wild type) 0.7 ± 0.012.
For GPSVMCTLYLTF [ARE2 C-terminal 12 aa], in that order: 0.5849 ± 0.0035 and 0.59105 ± 0.00058.
In the case of GQALLDQFAKFK [LSC1 C-terminal 12 aa], the protein stability index reads like this: under setting [1], 0.721 ± 0.058; (genetic background: wild type) 0.687 ± 0.021.
Consider GSNELLSILHRK [DCP2 C-terminal 12 aa], for which the protein stability index worked out at 0.73 ± 0.018 under setting [1] and 0.694 ± 0.059 (genetic background: wild type).
For GSSVPLDLTLFT [VRP1 C-terminal 12 aa], in that order: 0.728 ± 0.012 and 0.714 ± 0.0093.
For the sequence GSVCFIMDYFTG [VPS62 C-terminal 12 aa], the protein stability index runs as follows: under setting [1], 0.706 ± 0.013; (genetic background: wild type) 0.677 ± 0.015.
For GSYATRAYGQKK [FDH1 C-terminal 12 aa], in that order: 0.694 ± 0.011 and 0.688 ± 0.018.
GWDRLVEARSQI [EMW1 C-terminal 12 aa]: the protein stability index runs as follows: under setting [1], 0.7268 ± 0.0039; (genetic background: wild type) 0.708 ± 0.027.
As to HAERERENMIYD [YGL108C C-terminal 12 aa], the protein stability index runs as follows: under setting [1], 0.7122 ± 0.0035; (genetic background: wild type) 0.695 ± 0.029.
Take HAQKRVSNASAR [SKI6 C-terminal 12 aa]: the protein stability index turned out to be 0.6983 ± 0.0028 under setting [1] and 0.6988 ± 0.0036 (genetic background: wild type).
For HCLSNSASHSCG [YGR018C C-terminal 12 aa], in that order: 0.675 ± 0.014 and 0.64 ± 0.014.
On to HFNSSSPQKVEF [LSM4 C-terminal 12 aa], for which the protein stability index stood at 0.721 ± 0.012 under setting [1] and 0.738 ± 0.03 (genetic background: wild type).
For the sequence HGHHNSSTSGHK [PBP1 C-terminal 12 aa], the protein stability index runs as follows: under setting [1], 0.694 ± 0.015; (genetic background: wild type) 0.714 ± 0.0077.
